# Test results: publication PMC12416549 (2024)
# T1: TNFR1 (Homo sapiens, UniProt P19438)
# T1 chain: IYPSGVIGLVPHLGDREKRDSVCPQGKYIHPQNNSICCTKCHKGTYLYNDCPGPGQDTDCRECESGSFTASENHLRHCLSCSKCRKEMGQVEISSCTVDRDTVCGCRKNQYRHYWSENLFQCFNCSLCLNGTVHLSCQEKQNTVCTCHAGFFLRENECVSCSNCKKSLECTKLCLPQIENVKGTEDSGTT
# Target: T1, TNFR1
# Test: yeast display SC50
row,apparent Kd (screen) [nM],Binder
1,4.83,M58T (designed binder) SMEEEVEKAAKEYEKKKKEAIEKHLEKLKAKDKEAAERFLKELEEAAKEYAKDEAKTTSEEEAKRRAKKYKEKVLLSELSEEEQKEIKEAEEKLVRTILKYVEEAAK
2,3.3,A51T (designed binder) SMEEEVEKAAKEYEKKKKEAIEKHLEKLKAKDKEAAERFLKELEEAAKEYTKDEAKTMSEEEAKRRAKKYKEKVLLSELSEEEQKEIKEAEEKLVRTILKYVEEAAK
3,10.4,E7M (designed binder) SMEEEVMKAAKEYEKKKKEAIEKHLEKLKAKDKEAAERFLKELEEAAKEYAKDEAKTMSEEEAKRRAKKYKEKVLLSELSEEEQKEIKEAEEKLVRTILKYVEEAAK
4,0.539,L25M (designed binder) SMEEEVEKAAKEYEKKKKEAIEKHMEKLKAKDKEAAERFLKELEEAAKEYAKDEAKTMSEEEAKRRAKKYKEKVLLSELSEEEQKEIKEAEEKLVRTILKYVEEAAK
5,0.49,E37A (designed binder) SMEEEVEKAAKEYEKKKKEAIEKHLEKLKAKDKEAAARFLKELEEAAKEYAKDEAKTMSEEEAKRRAKKYKEKVLLSELSEEEQKEIKEAEEKLVRTILKYVEEAAK
6,4.83,K56H (designed binder) SMEEEVEKAAKEYEKKKKEAIEKHLEKLKAKDKEAAERFLKELEEAAKEYAKDEAHTMSEEEAKRRAKKYKEKVLLSELSEEEQKEIKEAEEKLVRTILKYVEEAAK
7,0.539,A9H (designed binder) SMEEEVEKHAKEYEKKKKEAIEKHLEKLKAKDKEAAERFLKELEEAAKEYAKDEAKTMSEEEAKRRAKKYKEKVLLSELSEEEQKEIKEAEEKLVRTILKYVEEAAK
8,4.83,Y70S (designed binder) SMEEEVEKAAKEYEKKKKEAIEKHLEKLKAKDKEAAERFLKELEEAAKEYAKDEAKTMSEEEAKRRAKKSKEKVLLSELSEEEQKEIKEAEEKLVRTILKYVEEAAK
9,0.869,K33R (designed binder) SMEEEVEKAAKEYEKKKKEAIEKHLEKLKAKDREAAERFLKELEEAAKEYAKDEAKTMSEEEAKRRAKKYKEKVLLSELSEEEQKEIKEAEEKLVRTILKYVEEAAK
10,0.49,A47Q (designed binder) SMEEEVEKAAKEYEKKKKEAIEKHLEKLKAKDKEAAERFLKELEEAQKEYAKDEAKTMSEEEAKRRAKKYKEKVLLSELSEEEQKEIKEAEEKLVRTILKYVEEAAK
11,0.446,E5P (designed binder) SMEEPVEKAAKEYEKKKKEAIEKHLEKLKAKDKEAAERFLKELEEAAKEYAKDEAKTMSEEEAKRRAKKYKEKVLLSELSEEEQKEIKEAEEKLVRTILKYVEEAAK
12,16.7,K71D (designed binder) SMEEEVEKAAKEYEKKKKEAIEKHLEKLKAKDKEAAERFLKELEEAAKEYAKDEAKTMSEEEAKRRAKKYDEKVLLSELSEEEQKEIKEAEEKLVRTILKYVEEAAK
13,5.31,K73P (designed binder) SMEEEVEKAAKEYEKKKKEAIEKHLEKLKAKDKEAAERFLKELEEAAKEYAKDEAKTMSEEEAKRRAKKYKEPVLLSELSEEEQKEIKEAEEKLVRTILKYVEEAAK
14,0.446,K85Y (designed binder) SMEEEVEKAAKEYEKKKKEAIEKHLEKLKAKDKEAAERFLKELEEAAKEYAKDEAKTMSEEEAKRRAKKYKEKVLLSELSEEEQYEIKEAEEKLVRTILKYVEEAAK
15,0.446,K11Q (designed binder) SMEEEVEKAAQEYEKKKKEAIEKHLEKLKAKDKEAAERFLKELEEAAKEYAKDEAKTMSEEEAKRRAKKYKEKVLLSELSEEEQKEIKEAEEKLVRTILKYVEEAAK
16,0.446,L40C (designed binder) SMEEEVEKAAKEYEKKKKEAIEKHLEKLKAKDKEAAERFCKELEEAAKEYAKDEAKTMSEEEAKRRAKKYKEKVLLSELSEEEQKEIKEAEEKLVRTILKYVEEAAK
17,1.16,A20D (designed binder) SMEEEVEKAAKEYEKKKKEDIEKHLEKLKAKDKEAAERFLKELEEAAKEYAKDEAKTMSEEEAKRRAKKYKEKVLLSELSEEEQKEIKEAEEKLVRTILKYVEEAAK
18,1.4,K100A (designed binder) SMEEEVEKAAKEYEKKKKEAIEKHLEKLKAKDKEAAERFLKELEEAAKEYAKDEAKTMSEEEAKRRAKKYKEKVLLSELSEEEQKEIKEAEEKLVRTILAYVEEAAK

row,apparent Kd (screen) [nM],Binder
1,0.956,L28M (designed binder) SMEEEVEKAAKEYEKKKKEAIEKHLEKMKAKDKEAAERFLKELEEAAKEYAKDEAKTMSEEEAKRRAKKYKEKVLLSELSEEEQKEIKEAEEKLVRTILKYVEEAAK
2,0.49,A10V (designed binder) SMEEEVEKAVKEYEKKKKEAIEKHLEKLKAKDKEAAERFLKELEEAAKEYAKDEAKTMSEEEAKRRAKKYKEKVLLSELSEEEQKEIKEAEEKLVRTILKYVEEAAK
3,0.79,Y50L (designed binder) SMEEEVEKAAKEYEKKKKEAIEKHLEKLKAKDKEAAERFLKELEEAAKELAKDEAKTMSEEEAKRRAKKYKEKVLLSELSEEEQKEIKEAEEKLVRTILKYVEEAAK
4,20.2,Y70I (designed binder) SMEEEVEKAAKEYEKKKKEAIEKHLEKLKAKDKEAAERFLKELEEAAKEYAKDEAKTMSEEEAKRRAKKIKEKVLLSELSEEEQKEIKEAEEKLVRTILKYVEEAAK
5,0.49,K48L (designed binder) SMEEEVEKAAKEYEKKKKEAIEKHLEKLKAKDKEAAERFLKELEEAALEYAKDEAKTMSEEEAKRRAKKYKEKVLLSELSEEEQKEIKEAEEKLVRTILKYVEEAAK
6,0.956,K8C (designed binder) SMEEEVECAAKEYEKKKKEAIEKHLEKLKAKDKEAAERFLKELEEAAKEYAKDEAKTMSEEEAKRRAKKYKEKVLLSELSEEEQKEIKEAEEKLVRTILKYVEEAAK
7,1.27,S80V (designed binder) SMEEEVEKAAKEYEKKKKEAIEKHLEKLKAKDKEAAERFLKELEEAAKEYAKDEAKTMSEEEAKRRAKKYKEKVLLSELVEEEQKEIKEAEEKLVRTILKYVEEAAK
8,0.49,K64G (designed binder) SMEEEVEKAAKEYEKKKKEAIEKHLEKLKAKDKEAAERFLKELEEAAKEYAKDEAKTMSEEEAGRRAKKYKEKVLLSELSEEEQKEIKEAEEKLVRTILKYVEEAAK
9,0.446,K15Y (designed binder) SMEEEVEKAAKEYEYKKKEAIEKHLEKLKAKDKEAAERFLKELEEAAKEYAKDEAKTMSEEEAKRRAKKYKEKVLLSELSEEEQKEIKEAEEKLVRTILKYVEEAAK
10,2.73,K93W (designed binder) SMEEEVEKAAKEYEKKKKEAIEKHLEKLKAKDKEAAERFLKELEEAAKEYAKDEAKTMSEEEAKRRAKKYKEKVLLSELSEEEQKEIKEAEEWLVRTILKYVEEAAK
11,0.446,K48A (designed binder) SMEEEVEKAAKEYEKKKKEAIEKHLEKLKAKDKEAAERFLKELEEAAAEYAKDEAKTMSEEEAKRRAKKYKEKVLLSELSEEEQKEIKEAEEKLVRTILKYVEEAAK
12,1.4,R65N (designed binder) SMEEEVEKAAKEYEKKKKEAIEKHLEKLKAKDKEAAERFLKELEEAAKEYAKDEAKTMSEEEAKNRAKKYKEKVLLSELSEEEQKEIKEAEEKLVRTILKYVEEAAK
13,0.446,M2V (designed binder) SVEEEVEKAAKEYEKKKKEAIEKHLEKLKAKDKEAAERFLKELEEAAKEYAKDEAKTMSEEEAKRRAKKYKEKVLLSELSEEEQKEIKEAEEKLVRTILKYVEEAAK
14,0.446,S59G (designed binder) SMEEEVEKAAKEYEKKKKEAIEKHLEKLKAKDKEAAERFLKELEEAAKEYAKDEAKTMGEEEAKRRAKKYKEKVLLSELSEEEQKEIKEAEEKLVRTILKYVEEAAK
15,0.49,A51W (designed binder) SMEEEVEKAAKEYEKKKKEAIEKHLEKLKAKDKEAAERFLKELEEAAKEYWKDEAKTMSEEEAKRRAKKYKEKVLLSELSEEEQKEIKEAEEKLVRTILKYVEEAAK
16,0.718,E34S (designed binder) SMEEEVEKAAKEYEKKKKEAIEKHLEKLKAKDKSAAERFLKELEEAAKEYAKDEAKTMSEEEAKRRAKKYKEKVLLSELSEEEQKEIKEAEEKLVRTILKYVEEAAK
17,7.07,K68P (designed binder) SMEEEVEKAAKEYEKKKKEAIEKHLEKLKAKDKEAAERFLKELEEAAKEYAKDEAKTMSEEEAKRRAPKYKEKVLLSELSEEEQKEIKEAEEKLVRTILKYVEEAAK
